Measurements from patent US20250313614A1 (ANNEXON, published 2025).
“And” between values parts separate entries of the source, which are not always exact repeats. Equal values may be shown once.

Assays:
human C1q [1] = target: T1, human C1q (human, UniProt P02745 23-245; P02746 28-253; P02747 29-245); test: cell-based or functional assay
C1q = C1q (Native C1q is a hexamer of A-B-C heterotrimers (18 chains); one chain of each kind is given. The collagen-like regions carry hydroxyproline and hydroxylysine.); test: cell-based or functional assay
Sequence of C1q (Native C1q is a hexamer of A-B-C heterotrimers (18 chains); one chain of each kind is given. The collagen-like regions carry hydroxyproline and hydroxylysine.) (A chain, as listed by the source limits assumed, form in doubt, chain 1 of 3): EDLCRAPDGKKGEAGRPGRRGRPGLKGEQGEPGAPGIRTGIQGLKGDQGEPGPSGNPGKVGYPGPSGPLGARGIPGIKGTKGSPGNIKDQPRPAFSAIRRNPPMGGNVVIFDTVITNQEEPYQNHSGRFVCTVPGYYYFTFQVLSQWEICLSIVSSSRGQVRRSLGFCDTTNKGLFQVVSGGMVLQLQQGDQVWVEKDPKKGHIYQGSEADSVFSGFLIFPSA
Sequence of C1q (Native C1q is a hexamer of A-B-C heterotrimers (18 chains); one chain of each kind is given. The collagen-like regions carry hydroxyproline and hydroxylysine.) (B chain, as listed by the source limits assumed, form in doubt, chain 2 of 3): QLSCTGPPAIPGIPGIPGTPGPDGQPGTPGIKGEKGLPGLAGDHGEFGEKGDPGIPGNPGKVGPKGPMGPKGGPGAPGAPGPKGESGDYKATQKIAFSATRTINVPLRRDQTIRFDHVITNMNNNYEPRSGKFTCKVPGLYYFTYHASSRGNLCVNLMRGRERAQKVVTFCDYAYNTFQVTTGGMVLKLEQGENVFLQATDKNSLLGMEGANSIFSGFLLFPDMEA
Sequence of C1q (Native C1q is a hexamer of A-B-C heterotrimers (18 chains); one chain of each kind is given. The collagen-like regions carry hydroxyproline and hydroxylysine.) (C chain, as listed by the source limits assumed, form in doubt, chain 3 of 3): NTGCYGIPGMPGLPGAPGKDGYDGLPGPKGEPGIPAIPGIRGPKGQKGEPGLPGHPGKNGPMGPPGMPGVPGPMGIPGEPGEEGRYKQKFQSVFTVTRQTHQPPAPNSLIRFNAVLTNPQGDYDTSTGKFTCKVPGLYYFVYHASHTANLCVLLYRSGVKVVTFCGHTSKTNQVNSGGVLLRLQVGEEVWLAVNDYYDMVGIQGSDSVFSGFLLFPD

human C1q [2] = target: T1, human C1q; test: one-sided ELISA on human C1q, detection with enzyme-tagged anti-human-Fc or anti-human kappa antibody
Excerpt: Binding of Mab2-Fab, FabA and Mab2 to human C1q in a one-sided ELISA. Bound antibody or Fab molecules were detected using an enzyme-tagged anti-human-Fc or anti-human kappa antibody followed by enzyme substrate.

T1 sequence (P02745 23-245 limits assumed, chain 1 of 3): as the sequence (A chain, as listed by the source limits assumed, form in doubt, chain 1 of 3) above
T1 sequence (P02746 28-253 limits assumed, chain 2 of 3): as the sequence (B chain, as listed by the source limits assumed, form in doubt, chain 2 of 3) above
T1 sequence (P02747 29-245 limits assumed, chain 3 of 3): as the sequence (C chain, as listed by the source limits assumed, form in doubt, chain 3 of 3) above

B1: FabA (Fab)
heavy: QVQLVQSGAELKKPGASVKVSCKSSGYHFTSYWMHWVKQAPGQGLEWIGVIHPNSGSINYNEKFESRVTITVDKSTSTAYMELSSLRSEDTAVYYCAGERDSTEVLPMDYWGQGTTVTVSSASTKGPSVFPLAPSSKSTSGGTAALGCLVKDYFPEPVTVSWNSGALTSGVHTFPAVLQSSGLYSLSSVVTVPSSSLGTQTYICNVNHKPSNTKVDKKVEPKSCDKTHT
light: DVQITQSPSSLSASLGERATINCRASKSINKYLAWYQQKPGKAPKLLIYSGSTLQSGIPARFSGSGSGTDFTLTISSLEPEDFAMYYCQQHNEYPLTFGQGTKLEIKRTVAAPSVFIFPPSDEQLKSGTASVVCLLNNFYPREAKVQWKVDNALQSGNSQESVTEQDSKDSTYSLSSTLTLSKADYEKHKVYACEVTHQGLSSPVTKSFNRGEC
notes: Recombinant humanized IgG1 Fab; also called anti-C1q Fab; anti-C1q antibody Fab fragment
- half maximal inhibitory concentration (IC50) of inhibition of IgM-coated RBC hemolysis in human serum (human C1q [1]): 0.62 µg/mL and ~12 nM
- IC50 of inhibition of the classical pathway (IgM-coated wells, C5b-9 detection, Weislab ELISA kit) (C1q): ≤ 300 ng/mL
- EC50 (human C1q [2]): 2.5 ng/mL
